Key:
u-PA/IIb (phage) = u-PA/IIb (phage) (human, UniProt P00749 179-431); assay: phage display selection: stable complex with His-tagged PAI-1/69 bait captured on Cu-sepharose; increased sensitivity against PAI-1/69
Procedure: (§1) In brief, 5 μl (˜2×10¹² to ˜1×10¹³) u-PA phage, containing an equal representation of u-PA phage from all three u-PA phage libraries (0.2, 0.5 and 0.9% mutagenesis frequency), was mixed with 5 μl bait substrate (from 0.1 to 1.0 μM PAI-1/RRAR or PAI-1/69) and 10 μl 10× indirect buffer pH 7.4 (0.5 M Tris, 1.0 M NaCl, 10 mM EDTA, 0.1% Tween 80) in a total volume of 100 μl (i.e. reaction contained 80 μl H₂O).
(§2) The u-PA phage-PAI-1 inhibitor complexes were captured using CuSO₄ activated sepharose. Pre-activation of the chelating sepharose (200 μl; Pharmacia) was accomplished by treatment with CuSO₄ (100 mM). The CuSO₄ activated sepharose was blocked with 0.5% BSA in PBS buffer for 1 hour at room temperature. 100 μl of BSA blocked sepharose beads was added to 100 μl of the above panning mixture reaction in the presence of 800 μl of binding buffer (0.5 M NaCl, 20 mM Tris, 20 mM immidozole, pH7.4) to capture the His-tagged PAI-1 inhibitor-u-PA phage complexes. The incubation was continued for another 1 hour at room temperature. Next, the panning mixture was centrifuged for 1 min at 2000 rpm and the sepharose beads containing bound u-PA phage-PAI-1 inhibitor complexes were washed with 1 ml of binding buffer to remove unbound phages. The washing step was repeated 5-10 times and the beads containing bound complexes were transferred to new tubes after each wash to avoid any potential “carry over” of non-specific phages.

u-PA/IVb (phage) = u-PA/IVb (phage) (human, UniProt P00749 179-431); assay: as above
Procedure: as §1, §2

u-PA/IIIb (phage) = u-PA/IIIb (phage) (human, UniProt P00749 179-431); assay: as above
Procedure: as §1, §2

u-PA/IIa (phage) = u-PA/IIa (phage) (human, UniProt P00749 179-431); assay: as above
Procedure: as §1, §2

u-PA/Ic (phage) = u-PA/Ic (phage) (human, UniProt P00749 179-431); assay: as above
Procedure: as §1, §2

u-PA/IIIc (phage) = u-PA/IIIc (phage) (human, UniProt P00749 179-431); assay: as above
Procedure: as §1, §2

u-PA/IIIa (phage) = u-PA/IIIa (phage) (human, UniProt P00749 179-431); assay: as above
Procedure: as §1, §2

u-PA/Id (phage) = u-PA/Id (phage) (human, UniProt P00749 179-431); assay: as above
Procedure: as §1, §2

u-PA/Ia (phage) = u-PA/Ia (phage) (human, UniProt P00749 179-431); assay: as above
Procedure: as §1, §2

u-PA/IIId (phage) = u-PA/IIId (phage) (human, UniProt P00749 179-431); assay: as above
Procedure: as §1, §2

u-PA/IVa (phage) = u-PA/IVa (phage) (human, UniProt P00749 179-431); assay: as above
Procedure: as §1, §2

u-PA/IIc (phage) = u-PA/IIc (phage) (human, UniProt P00749 179-431); assay: as above
Procedure: as §1, §2

u-PA/Ib (phage) = u-PA/Ib (phage) (human, UniProt P00749 179-431); assay: as above
Procedure: as §1, §2

[1] = target: T1, u-PA/IVa (purified two-chain enzyme) (human, UniProt P00749 21-431); assay: inhibition kinetics, 2nd order rate constant
T1 construct: F30V/K82E/V159A/E80G/I89V/K187E (chymotrypsin numbering); Full-length u-PA from COS-1 cells, made two-chain with plasmin-sepharose; also called u-PA/IVa (30, 80, 82, 89, 159, 187)
Text: (§3) The indirect chromogenic assay as described in Part D above was used to determine the residual enzyme activity remaining as a function of time.
(§4) The rate constants for inhibition of wild-type or mutant u-PA by PAI-1 were under pseudo-first order conditions for an excess of PAI-1 over u-PA as described previously (see e.g., Holmes et al. (1987) Biochemistry, 26: 5133-5140; Beatty et al. (1980) J. Biol. Chem., 255:3931-3934; Madison et al. (1990) PNAS, 87: 3530-3533; Madison et al. (1993) Methods Enzymol., 223:249-271). […] Following incubation, the mixtures were diluted and the residual enzymatic activity was determined in a standard chromogenic assay as set forth in D above. Data were analyzed by plotting In (residual activity/initial activity) versus time and determining the slope of the resulting straight line. […] rate constants were then derived by dividing the slope by the concentration of the inhibitor in the reaction.
(§5) Following preincubation, the mixtures were quenched with an excess of neutralizing anti-PAI antibodies and residual enzymatic activity was measured in the indirect chromogenic assay. The indirect, chromogenic assays were compared with control reactions containing no PAI-1 or to which PAI-1 was added after preincubation and addition of anti-PAI-1 antibody, plasminogen and Spectrozyme PL to the reaction mixture.

[2] = target: T2, u-PA/IVb (purified two-chain enzyme) (human, UniProt P00749 21-431); assay: inhibition kinetics, 2nd order rate constant
T2 construct: F30V/K82E/V159A/E80G/E84K/I89V/K187E (chymotrypsin numbering); Full-length u-PA from COS-1 cells, made two-chain with plasmin-sepharose; also called u-PA/IVb (30, 80, 82, 84, 89, 159, 187)
Text: as §3, §4, §5

[3] = target: T3, u-PA/IIIb (purified two-chain enzyme) (human, UniProt P00749 21-431); assay: inhibition kinetics, 2nd order rate constant
T3 construct: F30V/K82E/T39A/V159A (chymotrypsin numbering); Full-length u-PA from COS-1 cells, made two-chain with plasmin-sepharose; also called u-PA/IIIb (30, 39, 82, 159)
Text: as §3, §4, §5

[4] = target: T4, u-PA/IIIa (purified two-chain enzyme) (human, UniProt P00749 21-431); assay: inhibition kinetics, 2nd order rate constant
T4 construct: F30V/K82E/V159A (chymotrypsin numbering); Full-length u-PA from COS-1 cells, made two-chain with plasmin-sepharose; also called u-PA/IIIa (30, 82, 159)
Text: as §3, §4, §5

[5] = target: T5, u-PA/Ic (purified two-chain enzyme) (human, UniProt P00749 21-431); assay: inhibition kinetics, 2nd order rate constant
T5 construct: F30V (chymotrypsin numbering); Full-length u-PA from COS-1 cells, made two-chain with plasmin-sepharose; also called u-PA/Ic (30)
Text: as §3, §4, §5

[6] = target: T6, u-PA/IIb (purified two-chain enzyme) (human, UniProt P00749 21-431); assay: inhibition kinetics, 2nd order rate constant
T6 construct: F30V/K82E (chymotrypsin numbering); Full-length u-PA from COS-1 cells, made two-chain with plasmin-sepharose; also called u-PA/IIb (30, 82)
Text: as §3, §4, §5

Measured: binding result

B1: mutant PAI-1/69 inhibitor (other)
chain: VHHPPSYVAHLASDFGVRVFQQVAQASKDRNVVFSPYGVASVLAMLQLTTGGETQQQIQAAMGFKIDDKGMAPALRHLYKELMGPWNKDEISTTDAIFVQRDLKLVQGFMPHFFRLFRSTVKQVDFSEVERARFIINDWVKTHTKGMISNLLGKGAVDQLTRLVLVNALYFNGQWKTPFPDSSTHRRLFHKSDGSTVSVPMMAQTNKFNYTEFTTPDGHYYDILELPYHGDTLSMFIAAPYEKEVPLSALTNILSAQLISHWKGNMTRLPRLLVLPKFSLETEVDLRKPLENLGMTDMFRQFQADFTSLSDQEPLHVAQALQKVKIEVNESGTVASSSTAVIPFGRSAPEEIIMDRPFLFVVRHNPTGTVLFMGQVMEP
notes: not shown: N-terminal poly histidine residues from the pPAIST7HS vector
binds: all assays above
